This note sets out measurements from patent US8076300B2, “FGF2-binding peptides and uses thereof” (Tecnogen S.p.A., priority 2006, dated 2011).

For experiment [1], the target named is T1, FGF2 (Homo sapiens, UniProt P09038). The experiment in a line: BIAcore binding assay, FGF2 binding to PTX3 immobilized to a sensorchip. The arrangement: made in house; host or cells: FGF2: E. coli; PTX3: Chinese hamster ovary cells. The note with it: for inhibition of FGF2 binding to PTX3 immobilized to a BIAcore sensorchip / IC50: FGF2 0.8 μM; for inhibition of FGF2 binding to PTX3 immobilized to a BIAcore sensorchip: increasing peptide concentrations; for IC50: antagonist in mobile phase, read-out: ID50, inhibition of FGF2 binding to the PTX3 surface. As for the experimental part: A BIAcore X apparatus (BIAcore Inc, Piscataway, N.J.) was used. Surface plasmon resonance was exploited to measure changes in refractive index caused by the ability of FGF2 to bind to PTX3 immobilized to a BIAcore sensorchip. To this purpose, PTX3 (2.2 μM) was allowed to react with a flow cell of a CM4 sensorchip that was previously activated with 50 μl of a mixture of 0.2 M N-ethyl-N′-(3-dimethylaminopropyl)-carbodiimide hydrochloride and 0.05 M N-hydroxysuccinimide. These experimental conditions allowed the immobilization of 5,000 resonance units (RUs), corresponding to approximately 0.1 pmoles of PTX3. Similar results were obtained for immobilization of gelatin, here used as a negative control and for blank subtraction. Increasing concentrations of FGF2 with or without synthetic PTX3 peptides were then injected in dilution buffer (PBS plus 0.005% surfactant P20, 5.0 μg/mL CaCl2 and MgCl2) over the PTX3 surface for 4 minutes (to allow their association with immobilized PTX3) and then washed until dissociation was observed.
T1 sequence (P09038 134-288): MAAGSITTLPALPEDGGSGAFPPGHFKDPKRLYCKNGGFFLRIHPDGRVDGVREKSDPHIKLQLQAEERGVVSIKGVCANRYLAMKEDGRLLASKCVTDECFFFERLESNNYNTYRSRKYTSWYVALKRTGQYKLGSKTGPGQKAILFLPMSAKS

The next experiment concerns chick embryo CAM. Briefly: Chicken embryo chorioallantoic membrane (CAM) assay, FGF2-induced neovascularization. The format is in vivo. Particulars: for macroscopic vessels converging towards the implant: FGF2 16 pmoles/embryo, with or without 3.0 nmoles of peptide, 72 hours. The protocol: Alginate beads (5 μl) containing vehicle or 16 pmoles of FGF2 with or without synthetic PTX3 peptides were prepared as described 24 and placed on top of the CAM of fertilized White Leghorn chicken eggs at day 11 of incubation (10 eggs per experimental group). After 72 hours, blood vessels converging towards the implant were counted by two observers in a double-blind fashion under a stereomicroscope (STEMI-SR, x2/0.12; Zeiss).

The test system of the next experiment is GM7373 cells. Briefly: Cell proliferation assay, endothelial GM7373 cells. The note with it: for inhibition of mitogenic activity exerted by FGF2: peptides 66 μM, PTX3 220 nM. Format: cell-based, bovine. The protocol: Cell proliferation assay on endothelial cells was performed as described^22. Briefly, GM7373 or MAE cells were seeded in 96-well dishes at 75,000 cells/cm^2 or 25,000 cells/cm^2, respectively. After 16 h, cells were incubated in fresh medium containing 0.4% FCS plus FGF2 (0.55 nM) in the absence or in the presence of different antagonists. After 24 or 48 h, respectively, cells were trypsinized and counted in a Burker chamber.

Experiment [2] has as its target T1, FGF2. Briefly: Solid phase binding assay, FGF2 binding to immobilized synthetic PTX3 peptides. More on the design: made in house; host or cells: E. coli. The note with it: peptides 200 μg/well, FGF2 80 nM. As for the experimental part: (§1) ELISA microplates were incubated for 16 hours at 4° C. with 100 μl/well of 100 mM NaHCO3, pH 9.6 (coating buffer) containing FGF2 (270 nM). Then, wells were overcoated for 2 hours at room temperature with 5% dry milk in coating buffer. […] Then, wells were sequentially incubated for 1 hour at 37° C. with a rabbit polyclonal anti-PTX3 antibody (1:2000 dilution) that recognizes both PTX3 fragments with similar efficiency in Western blot and ELISA, an anti-rabbit biotinylated antibody (1:2000), and 100 μl of streptavidin-horseredish peroxidase (1:5000, Amersham) for 1 hour at room temperature. Then, 100 μl/well of the chromogen substrate 2,29-azinobis(3-ethylbenzthiazolinesulfonic acid) were added. Absorbance values were read at 405 nm in an automatic ELISA reader. In some experiments, 100-μl aliquots of PBS containing biotin-labeled PTX3 (bPTX3) (22 nM) were incubated for 30 minutes at 37° C. onto FGF2-coated wells with or without competitors. Then, wells were washed, and the amount of bound bPTX3 was evaluated as described^17. Alternatively, synthetic PTX3 peptides were immobilized on ELISA microplate wells (200 μg/well) as described above. Then, FGF2 (80 nM) was added and FGF2 bound to immobilized peptides was assessed by 1 hour incubation at 37° C. with a rabbit polyclonal anti-FGF2 antibody (1:7000) followed by immunocomplex detection as described above.

Another experiment relates to MAE cells. The experiment in a line: Cell proliferation assay, retrovirus infected MAE cells stimulated with FGF2. The note with it: retroviral overexpression in MAE cells, FGF2 0.55 nM, 48 h. The format is cell-based, murine. An excerpt:
The cDNAs encoding for human PTX3 and for the enhanced green fluorescent protein (EGFP) were obtained as described^17. The cDNAs encoding for the N-terminal fragment PTX3(1-178) (Nterm-PTX3) and the C-terminal fragment PTX3(179-381) fused to the leader sequence for secretion PTX3(1-17) (sCterm-PTX3) were generated from pLX-PTX3^17 by PCR and standard cloning techniques. All cDNAs were cloned in the pBABE retroviral vector thus generating pBABE-PTX3, pBABE-Nterm-PTX3, pBABE-sCterm-PTX3, and pBABE-EGFP that were used to transfect the EcoPack2-293 packaging cells in the presence of Lipofectamin 17. Transduced cells were selected with puromycin (1 μg/ml, Sigma) for 2 weeks. Clones with a viral titer higher than […] were used for further experimentation. Confluent cultures of MAE cells were then incubated for 24 hours with the conditioned medium from pBABE-PTX3, pBABE-Nterm-PTX3, PBABE-sCterm-PTX3, or pBABE-EGFP packaging cells in the presence of polybrene (8 μg/ml, Sigma). Infected cell populations were selected for 7 days with puromycin. […] To assess the levels of transgene protein expression and release by infected cells, cell cultures were grown under serum-free conditions for 2 days. […]
Cell proliferation assay on endothelial cells was performed as described^22. […] After 24 or 48 h, respectively, cells were trypsinized and counted in a Burker chamber.

In experiment [3] the target is T1, FGF2. Briefly: Solid phase binding assay, PTX3 proteins on FGF2-coated wells. More on the design: made in house; host or cells: E. coli. Particulars: proteins at 44 nM, 30 minutes at 37° C. As for the experimental part:
as §1

Ends that are not written are not given here.

For the molecule ESLARPCAPGAPAE [PTX3(97-110)], the “inhibition of FGF2 binding to PTX3 immobilized to a BIAcore sensorchip” value (shortened to “inhibition of FGF2 binding”) with FGF2 [1] was “preventing its interaction with PTX3 immobilized to a BIAcore sensorchip”. Besides, in the experiment on chick embryo CAM (80 nmoles of peptide, FGF2 16 pmoles), the “inhibition in the angiogenic response triggered by FGF2” value is 50%. Besides, the “inhibition of mitogenic activity exerted by FGF2” value with GM7373 cells (FGF2 0.55 nM) is on record as “inhibits”. Also, the “binding of free FGF2 to immobilized peptide or PTX3” value (“binding of free FGF2” for short) with FGF2 [2] is reported as “binds”.
Take ESLARPCAPGA [PTX3(97-107)]: the “inhibition of FGF2 binding” value with FGF2 [1] is listed as “significant binding to FGF2”.
Turning to “DKLFIMLENSQMRERMLLQATDDVLRGEL [PTX3(57-85)]”, the “inhibition of FGF2 binding” value with FGF2 [1] is reported as “no inhibitory effect”. Also, the “inhibition of mitogenic activity exerted by FGF2” value in the experiment with GM7373 cells (FGF2 0.55 nM) is given as “ineffective”. The “binding of free FGF2” value with FGF2 [2] is reported as “not”.
Take “FGF2: Human recombinant FGF2 expressed in E. coli; heparin-binding growth factor, the angiogenic stimulus”: the “macroscopic vessels converging towards the implant” value with chick embryo CAM was determined as 44±7 vessels/embryo.
With ARPCA [PTX3(100-104)], in the experiment with FGF2 [1], the “inhibition of FGF2 binding” value is on record as “significant binding to FGF2”. In the experiment with GM7373 cells (FGF2 0.55 nM), the “inhibition of mitogenic activity exerted by FGF2” value is “inhibits”.
Consider “RGELQRLREELGRLAESLARPCAPGAPAE [PTX3(82-110)]”, for which the IC50 was determined as 30 µM on FGF2 [1] and 30 µM with GM7373 cells (dose-response, read-out: ID50, FGF2-antagonist activity on GM7373 cell proliferation). Also, the “potency relative to free full length PTX3” value on FGF2 [1] (inhibition of FGF2 binding to PTX3 surface) is recorded as 30 times lower. In addition, the “macroscopic vessels converging towards the implant” value in the experiment with chick embryo CAM stood at 28±5 vessels/embryo. Moreover, in the experiment on GM7373 cells (FGF2 0.55 nM), the “inhibition of mitogenic activity exerted by FGF2” value was “inhibit”. In addition, the “binding of free FGF2” value at FGF2 [2] was “binds”.
Turning to “DNEIDNGLHPTEDPTPCDCGQEHSEWDKLF [PTX3(31-60)]”, the “inhibition of FGF2 binding” value with FGF2 [1] is given as “no inhibitory effect”. In addition, the “inhibition of mitogenic activity exerted by FGF2” value with GM7373 cells (FGF2 0.55 nM) was “ineffective”. For the same molecule, the “binding of free FGF2” value with FGF2 [2] is “not”.
As to ARPCAPGAPAE [PTX3(100-110)], the “inhibition of FGF2 binding” value in the experiment with FGF2 [1] is recorded as “did not prevent the binding”.
For RGELQRLREELGRLAESLAR [PTX3(82-101)], in the experiment with FGF2 [1], the “inhibition of FGF2 binding” value was “ineffective”. Further, the “inhibition of mitogenic activity exerted by FGF2” value in the experiment with GM7373 cells (FGF2 0.55 nM) was “not”. For the same molecule, the “binding of free FGF2” value with FGF2 [2] was “without interacting”.
With “EGLRGELRGSREAELLRQAARAPACPLPE [scrambled PTX3(82-110), reference compound]”, on FGF2 [1], the IC50 is greater than 3000 µM.
Take “APAEARLTSALDELLQATRDAGRRLA [PTX3(107-132)]”: in the experiment with FGF2 [1], the “inhibition of FGF2 binding” value is listed as “no inhibitory effect”. Moreover, the “inhibition of mitogenic activity exerted by FGF2” value in the experiment on GM7373 cells (FGF2 0.55 nM) is “ineffective”. The “binding of free FGF2” value with FGF2 [2] is on record as “limited interaction”.
On to RGELQRLREELGRLA [PTX3(82-96)], for which, in the experiment with FGF2 [1], the “inhibition of FGF2 binding” value is “ineffective”. Moreover, the “effect on angiogenic response triggered by FGF2” value with chick embryo CAM (FGF2 16 pmoles) is given as “no effect”. Moreover, in the experiment with GM7373 cells (FGF2 0.55 nM), the “inhibition of mitogenic activity exerted by FGF2” value was “not”. For the same molecule, in the experiment with FGF2 [2], the “binding of free FGF2” value was “without interacting”.
ESLARPCA [PTX3(97-104)]: the “inhibition of FGF2 binding” value with FGF2 [1] was “did not prevent the binding”.

B1: sCterm-PTX3: C-terminal fragment PTX3(179-381) fused to the leader sequence for secretion PTX3(1-17) (protein)
chain: CETAILFPMRSKKIFGSVHPVRPMRLESFSACIWVKATDVLNKTILFSYGTKRNPYEIQLYLSYQSIVFVVGGEENKLVAEAMVSLGRWTHLCGTWNSEEGLTSLWVNGELAATTVEMATGHIVPEGGILQIGQEKNGCCVGGGFDETLAFSGRLTGFNIWDSVLSNEEIRETGGAESCHIRGNIVGWGVTEIQPHGGAQYVS
Take B1: in the experiment on MAE cells, the “capacity of infected cells to proliferate in response to exogenous FGF2” value was “No inhibition”. In addition, in the experiment on GM7373 cells (FGF2 0.55 nM, 24 h), the “inhibition of FGF2 mitogenic activity by conditioned medium of infected MAE cells” value is reported as “ineffective”.

B2: Cterm-PTX3: recombinant 6×His-tagged C-terminal fragment of PTX3 from E. coli (protein)
chain: CETAILFPMRSKKIFGSVHPVRPMRLESFSACIWVKATDVLNKTILFSYGTKRNPYEIQLYLSYQSIVFVVGGEENKLVAEAMVSLGRWTHLCGTWNSEEGLTSLWVNGELAATTVEMATGHIVPEGGILQIGQEKNGCCVGGGFDETLAFSGRLTGFNIWDSVLSNEEIRETGGAESCHIRGNIVGWGVTEIQPHGGAQYVSHHHHHH
As to B2, in the experiment with FGF2 [3], the “binding to FGF2 immobilized to non-tissue culture plastic” value is reported as “No interaction”.
